Assay [1] addresses Skp1-Cdc4 complex (Saccharomyces cerevisiae, UniProt P07834+P52286). Kind of assay: Fluorescence polarization binding of fluorescein-labelled Ash1 peptides to Skp1-Cdc4. The arrangement: species or system yeast. Particulars: 10 nM fluorescein-labelled peptide, increasing recombinant Skp1-Cdc4 complex; 10 mM HEPES pH 7.5, 40 mM NaCl, 0.1 mg ml^−1 BSA, 1 mM DTT; ex 485 / em 535 nm; read-out: Kd (μM) from fluorescence polarization. The text has this:
Figure 6 NMR titration of IM-labelled Cdc4^WD40 with Ash1 peptides. (a) Combined ^1H and ^13C chemical shifts of Cdc4^WD40 on binding of Ash1 peptides, with pT286 peptide in red, pT290 peptide in green, pS294 peptide in yellow, and the peptide phosphorylated on all three CPDs in blue. Assigned Ile and Met residues are labelled with residue number. Chemical shifts for the two bound states in titration with pT286 and triply phosphorylated peptides are reported on the same bars with stripes or without stripes. […] (f) Fluorescence polarization of the fluorescein-labelled Ash1 peptides (circle, pT286/pT290/pS294, square, pT286/pT290, triangle, pT290/pS294, inverted triangle doubly phosphorylated CycE peptide) in the presence of increasing concentrations of the recombinant Skp1-Cdc4 complex (mP, millipolarization unit). (g) Fluorescence polarization of the fluorescein-labelled Ash1 peptides (circle, pT286/pT290/pS294, square, pT286/pT290, triangle, pT290/pS294, inverted triangle, doubly phosphorylated CycE peptide) in the presence of increasing concentrations of the SCF-I2 inhibitor.
Fluorescence polarization assays containing 0.21 μM Skp1-Cdc4 complex and 10 nM fluorescently labelled cyclin E-derived or Ash1-derived phosphopeptides in 10 mM HEPES (pH 7.5), 40 mM NaCl, 0.1 mg ml^−1 BSA and 1 mM DTT in a final volume of 23.5 μl per well were performed on an Analyst HT plate reader (Molecular Devices Corp., Sunnyvale CA). Samples were excited at 485 nm and emission was read at 535 nm (ref. [26]).
(In general: Polarisation of emitted light reports the rotation of a fluorescent probe.)

For assay [2], the target named is Cdc4 (Saccharomyces cerevisiae) (UniProt P07834). To be noted: cited from earlier work.
Chain of Cdc4 (Saccharomyces cerevisiae) (P07834 whole entry): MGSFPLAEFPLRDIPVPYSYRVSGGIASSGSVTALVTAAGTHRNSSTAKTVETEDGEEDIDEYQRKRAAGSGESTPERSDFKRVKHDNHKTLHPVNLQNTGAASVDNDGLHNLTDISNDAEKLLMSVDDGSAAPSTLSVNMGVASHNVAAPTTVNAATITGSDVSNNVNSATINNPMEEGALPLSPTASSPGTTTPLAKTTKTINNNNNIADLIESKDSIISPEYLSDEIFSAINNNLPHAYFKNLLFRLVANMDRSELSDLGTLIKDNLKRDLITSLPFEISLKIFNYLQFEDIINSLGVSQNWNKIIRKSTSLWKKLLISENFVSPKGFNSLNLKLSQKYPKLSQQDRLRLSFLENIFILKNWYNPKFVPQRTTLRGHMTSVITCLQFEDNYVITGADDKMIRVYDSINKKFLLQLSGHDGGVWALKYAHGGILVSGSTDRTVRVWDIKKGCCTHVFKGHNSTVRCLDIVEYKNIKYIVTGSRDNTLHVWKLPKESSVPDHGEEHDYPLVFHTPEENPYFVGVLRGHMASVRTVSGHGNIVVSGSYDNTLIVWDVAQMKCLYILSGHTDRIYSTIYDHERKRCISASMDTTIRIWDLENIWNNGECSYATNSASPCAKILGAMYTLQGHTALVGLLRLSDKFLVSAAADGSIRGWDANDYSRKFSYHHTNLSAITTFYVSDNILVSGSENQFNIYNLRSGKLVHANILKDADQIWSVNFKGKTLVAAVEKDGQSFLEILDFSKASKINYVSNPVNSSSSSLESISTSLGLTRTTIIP
For assay [3] the target is unchanged. Particulars: cited from earlier work. This is another data set of the same source.
The target is the same in assay [4]. Particulars: cited from earlier work. The source holds these as a separate data set.
Assay [5] has the same target. To be noted: cited from earlier work. The source holds these as a separate data set.
The target is the same in assay [6]. To be noted: cited from earlier work. This is another data set of the same source.
Assay [7] has the same target. Particulars: cited from earlier work. The source holds these as a separate data set.
Assay [8] shares this target. Particulars: cited from earlier work. This is another data set of the same source.
The target is the same in assay [9]. Particulars: cited from earlier work. This is another data set of the same source.
Assay [10] has as its target Cdc4-Skp1 (Saccharomyces cerevisiae) (UniProt P07834). Kind of assay: intrinsic Trp fluorescence. To be noted: cited from earlier work.
In assay [11] the target is fluorescein-labelled Ash1^18pT286/pT290 peptide (yeast). Kind of assay: fluorescence polarisation; 10 nM fluorescein-labelled peptide with increasing concentrations of the recombinant Skp1-Cdc4 complex; 10 mM HEPES pH 7.5, 40 mM NaCl, 0.1 mg/ml BSA, 1 mM DTT.
The target in assay [12] is fluorescein-labelled Ash1^18pT290/pS294 peptide (yeast). Described as above.
Assay [13] deals with fluorescein-labelled Ash1^18pT286/pT290/pS294 peptide (yeast). Described as above.
Assay [14] has as its target T1, R664Q Cdc4^WD40 (yeast, UniProt P07834 367-744, R664Q).
T1 construct: Cdc4, yeast F-box protein, WD40 domain, residues 367-744, with Arg664Gln in the allosteric pocket; also called Arg664Gln Cdc4^WD40; mutant (Arg664Gln) Cdc4^WD40; source: E. coli, purified as the wild type (Ni-NTA, Ulp protease, Ni-NTA, Superdex 200)
T1 sequence (looked up): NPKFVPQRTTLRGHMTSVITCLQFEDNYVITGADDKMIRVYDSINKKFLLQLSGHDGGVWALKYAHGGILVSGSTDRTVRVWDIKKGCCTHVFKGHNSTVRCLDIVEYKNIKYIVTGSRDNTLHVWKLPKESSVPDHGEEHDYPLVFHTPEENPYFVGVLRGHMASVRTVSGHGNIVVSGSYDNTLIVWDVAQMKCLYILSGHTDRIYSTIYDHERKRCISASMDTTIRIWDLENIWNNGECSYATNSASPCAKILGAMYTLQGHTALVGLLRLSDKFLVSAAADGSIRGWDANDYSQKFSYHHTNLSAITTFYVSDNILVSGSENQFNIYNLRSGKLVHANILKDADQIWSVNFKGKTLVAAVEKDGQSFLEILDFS
Kind of assay: other fluorescence titration; intrinsic Trp fluorescence (excitation 298 nm, emission 366 nm); 0.5 μM Cdc4, ligand titrated; 50 mM Tris, 150 mM NaCl, 5 mM DTT, pH 7.5, 20 °C; 1:1 stoichiometry assumed. Particulars: both partners purified.

The target of assay [15] is T2, Cdc4^WD40 (isolated WD40 domain of the yeast F-box protein Cdc4, residues 367-744), wild type (yeast, UniProt P07834 367-744).
T2 construct: Cdc4, yeast F-box protein, WD40 domain, residues 367-744; For the NMR experiments the protein was U-[15N,2H], Ile-delta1-[13CH3], Met-epsilon-[13CH3] labelled (IM-labelled); also called wt Cdc4^WD40; Cdc4 WD40 domain; source: E. coli BL21(DE3) codonPlus, purified (Ni-NTA, Ulp protease, Ni-NTA, Superdex 200)
T2 sequence (looked up): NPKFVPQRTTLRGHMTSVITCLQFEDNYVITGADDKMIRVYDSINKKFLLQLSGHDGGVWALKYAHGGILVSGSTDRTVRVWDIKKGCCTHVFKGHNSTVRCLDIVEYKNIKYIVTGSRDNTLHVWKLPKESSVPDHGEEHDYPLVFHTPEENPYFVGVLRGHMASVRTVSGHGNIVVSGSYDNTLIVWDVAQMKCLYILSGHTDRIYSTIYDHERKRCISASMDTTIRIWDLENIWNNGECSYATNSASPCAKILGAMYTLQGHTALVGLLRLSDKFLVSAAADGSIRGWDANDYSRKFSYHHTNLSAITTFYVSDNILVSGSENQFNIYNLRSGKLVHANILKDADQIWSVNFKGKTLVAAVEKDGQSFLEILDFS
The description is as above. Particulars: both partners purified.

Read-outs that look alike come from different tables or passages of the source. Square brackets hold non-standard residues; d marks the D form. Ends that are not written are not given here. Peptide text beside a SMILES is read from it. pT = C[C@@H](OP(=O)(O)O)[C@H](N)C(=O)O; pS = N[C@@H](COP(=O)(O)O)C(=O)O

Chain of Skp1-Cdc4 complex (P07834 whole entry): as the sequence (P07834 whole entry) above
Chain of Skp1-Cdc4 complex (P52286 whole entry partner): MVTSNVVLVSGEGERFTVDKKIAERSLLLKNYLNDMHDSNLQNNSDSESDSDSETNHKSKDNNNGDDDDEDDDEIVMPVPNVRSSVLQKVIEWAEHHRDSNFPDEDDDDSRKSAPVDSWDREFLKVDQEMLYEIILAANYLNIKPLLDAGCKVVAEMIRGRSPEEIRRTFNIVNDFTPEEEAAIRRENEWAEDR
Chain of Cdc4-Skp1 (Saccharomyces cerevisiae) (P07834 whole entry, chain 1 of 2): as the sequence (P07834 whole entry) above
Chain of Cdc4-Skp1 (Saccharomyces cerevisiae) (P52286 2-194, chain 2 of 2, further chain): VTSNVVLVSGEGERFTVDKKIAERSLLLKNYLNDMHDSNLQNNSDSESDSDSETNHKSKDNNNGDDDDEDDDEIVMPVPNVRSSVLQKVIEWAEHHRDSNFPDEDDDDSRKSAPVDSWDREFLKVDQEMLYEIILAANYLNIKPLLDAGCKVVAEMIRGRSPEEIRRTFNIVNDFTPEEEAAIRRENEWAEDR

Consider `CC[C@H](C)[C@H](NC(=O)[C@H](CO)NC(=O)[C@H](Cc1c[nH]c2ccccc12)NC(=O)[C@H](C)N)C(=O)N[C@H](C(=O)N1CCC[C@H]1C(=O)N1CCC[C@H]1C(=O)N[C@H](C(=O)N[C@H](C(=O)N1CCC[C@H]1C(=O)N1CCC[C@H]1C(=O)N[C@@H](CCSC)C(=O)N[C@@H](COP(=O)(O)O)C(=O)N1CCC[C@H]1C(=O)N1CCC[C@H]1C(=O)N[C@H](C(=O)N[C@@H](CC(N)=O)C(=O)N[C@@H](CCCNC(=N)N)C(=O)O)[C@@H](C)O)[C@@H](C)OP(=O)(O)O)C(C)C)[C@@H](C)O` [AWSITPPVpTPPMpSPPTNR] (H-AWSITPPV[pT]PPM[pS]PPTNR-OH), for which the Kd in assay [1] was found to be 0.082 µM. The same measure, in the same setting: next, `CC[C@H](C)[C@H](NC(=O)[C@H](CO)NC(=O)[C@H](Cc1c[nH]c2ccccc12)NC(=O)[C@H](C)N)C(=O)N[C@H](C(=O)N1CCC[C@H]1C(=O)N1CCC[C@H]1C(=O)N[C@H](C(=O)N[C@H](C(=O)N1CCC[C@H]1C(=O)N1CCC[C@H]1C(=O)N[C@@H](CCSC)C(=O)N[C@@H](CO)C(=O)N1CCC[C@H]1C(=O)N1CCC[C@H]1C(=O)N[C@H](C(=O)N[C@@H](CC(N)=O)C(=O)N[C@@H](CCCNC(=N)N)C(=O)O)[C@@H](C)O)[C@@H](C)OP(=O)(O)O)C(C)C)[C@@H](C)OP(=O)(O)O` [AWSIpTPPVpTPPMSPPTNR] (H-AWSI[pT]PPV[pT]PPMSPPTNR-OH): 0.069 µM. Same read-out and setting: next, `CC[C@H](C)[C@H](NC(=O)[C@H](CO)NC(=O)[C@H](Cc1c[nH]c2ccccc12)NC(=O)[C@H](C)N)C(=O)N[C@H](C(=O)N1CCC[C@H]1C(=O)N1CCC[C@H]1C(=O)N[C@H](C(=O)N[C@H](C(=O)N1CCC[C@H]1C(=O)N1CCC[C@H]1C(=O)N[C@@H](CCSC)C(=O)N[C@@H](COP(=O)(O)O)C(=O)N1CCC[C@H]1C(=O)N1CCC[C@H]1C(=O)N[C@H](C(=O)N[C@@H](CC(N)=O)C(=O)N[C@@H](CCCNC(=N)N)C(=O)O)[C@@H](C)O)[C@@H](C)OP(=O)(O)O)C(C)C)[C@@H](C)OP(=O)(O)O` [AWSIpTPPVpTPPMpSPPTNR] (H-AWSI[pT]PPV[pT]PPM[pS]PPTNR-OH): 0.046 µM. In the case of “Ash1 pS294 peptide (from UniProt P34233)”, in [2], the Kd was 6500 nM.

Turning to “Ash1 pSer294 phosphopeptide 283-299 (from UniProt P34233)”, the Kd in assay [3] is 6500 nM. “Ash1 pT286 peptide (from UniProt P34233)”: in [4], the Kd was 900 nM. “Ash1 pT290 peptide (from UniProt P34233)”: in [5], the Kd was 4100 nM. “Ash1 pThr286 phosphopeptide 283-299 (from UniProt P34233)”: the Kd in assay [6] was 900 nM. Regarding “Ash1 pThr290 phosphopeptide 283-299 (from UniProt P34233)”, the Kd in [7] was 4100 nM. With “Ash1 triphosphorylated peptide 283-299 (from UniProt P34233)”, in assay [8], the Kd was 70 nM.

For Sic1 (from UniProt P38634), the Kd in [9] is 1000 nM. For pSic1 1-90 (from UniProt P38634), the Kd in assay [10] was 600 nM. For pSic1 (from UniProt P38634), the Kd in [10] is 600 nM. Turning to “recombinant Skp1-Cdc4 complex (from UniProt P07834 1-779; P52286 1-194)”, the figures for the Kd in assay [11], in [12] and in assay [13] were 69 nM, 82 nM and 46 nM, respectively.

B1: Sic1^20pS69/pS80 phosphopeptide (peptide)
chain: GMT[pS]PFNGLTSPQR[pS]PFPKS
In the case of B1, the figures for the Ka in assay [14] and in assay [15] were 267000 M⁻¹ and 142000 M⁻¹, respectively. For the same molecule, the Kd in assay [14] was 3740 nM; in [15] it was 7060 nM.

B2: Sic1^20pS80 phosphopeptide (peptide)
chain: GMTSPFNGLTSPQR[pS]PFPKS
Consider B2, for which, in assay [14], the Ka turned out to be 104000 M⁻¹ and the Kd is 9580 nM. In [15], this molecule came in with a Ka of 110000 M⁻¹ and a Kd of 9130 nM.

B3: Sic1^20pS69 phosphopeptide (peptide)
chain: GMT[pS]PFNGLTSPQRSPFPKS
In assay [14], B3 yielded a Ka of 51400 M⁻¹ and a Kd of 19500 nM. In assay [15], this molecule showed a Ka of 97600 M⁻¹ and a Kd of 10300 nM.

One may read the Kd as the constant that tells how readily two partners part at equilibrium.
